Values of other authors, collected in PMC6191370.

How the values were obtained:
[1] = target: intermediate-affinity IL-2R (beta/gamma chains) (Homo sapiens) (UniProt P14784)
[2] = target: CD25 (Homo sapiens) (UniProt P01589)
Sequence of UniProt P01589 (P01589 22-240): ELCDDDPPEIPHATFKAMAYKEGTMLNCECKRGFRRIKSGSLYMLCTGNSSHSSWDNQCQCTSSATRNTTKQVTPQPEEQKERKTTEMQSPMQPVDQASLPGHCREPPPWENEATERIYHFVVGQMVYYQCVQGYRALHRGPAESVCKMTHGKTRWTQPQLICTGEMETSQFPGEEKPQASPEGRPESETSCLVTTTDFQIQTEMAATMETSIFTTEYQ

Sequence of UniProt P14784 (P14784 27-240, chain 1 of 2): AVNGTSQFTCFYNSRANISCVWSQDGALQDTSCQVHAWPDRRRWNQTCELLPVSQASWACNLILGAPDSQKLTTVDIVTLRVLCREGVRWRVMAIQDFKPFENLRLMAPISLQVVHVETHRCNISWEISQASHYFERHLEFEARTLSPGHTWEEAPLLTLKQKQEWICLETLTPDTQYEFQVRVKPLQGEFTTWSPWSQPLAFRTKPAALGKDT
Sequence of UniProt P14784 (P31785 23-262, chain 2 of 2, further chain): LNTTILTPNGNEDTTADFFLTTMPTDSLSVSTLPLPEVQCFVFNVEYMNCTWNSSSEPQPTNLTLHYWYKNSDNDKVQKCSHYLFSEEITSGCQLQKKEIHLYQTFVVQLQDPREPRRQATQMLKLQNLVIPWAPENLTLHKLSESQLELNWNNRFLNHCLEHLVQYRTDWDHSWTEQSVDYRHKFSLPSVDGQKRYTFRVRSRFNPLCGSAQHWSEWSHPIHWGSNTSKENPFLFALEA

Kd [1]: 1 nM
Kd [2]: 10 nM
Substance: IL-2 (from UniProt P60568)
